Key:
[1] = molecular target: mouse recombinant sFRP-3 (R&D) (mouse) (UniProt P97401); test: other fluorescence titration; competition: 250 nM native EGF added to 25 nM EGFAlexa488 prior to 100 nM sFRP-3, in PBS; spectrum of Alexa488, peak at 517 nm
Alexa488-conjugated EGF = test: as above

Row | Molecule | decrease of the EGFAlexa488 absorbance value at the emission peak when native EGF was added before sFRP-3 [1] | decrease of the EGFAlexa488 absorbance value at the emission peak (Alexa488-conjugated EGF)
1 | recombinant mouse EGF (ligand) | 7 units | –
2 | mouse recombinant sFRP-3 (R&D) (natural protein) AACEPVRIPLCKSLPWNMTKMPNHLHHSTQANAILAMEQFEGLLGTHCSPDLLFFLCAMYAPICTIDFQHEPIKPCKSVCERARQGCEPILIKYRHSWPESLACDELPVYDRGVCISPEAIVTADGADFPMDSSTGHCRGASSERCKCKPVRATQKTYFRNNYNYVIRAKVKEVKMKCHDVTAVVEVKEILKASLVNIPRDTVNLYTTSGCLCPPLTVNEEYVIMGYEDEERSRLLLVEGSIAEKWKDRLGKKVKRWDMKLRHLGLGKTDASDSTQNQKSGRNSNPRPARS | – | 10 units

Source: article PMC2424011
